Like-named read-outs stand apart in the source and are kept apart here.
Columns and labels:
Assay in all cases: two-hybrid; bacterial two hybrid (BACTH): T18 and T25 adenylate cyclase fusions in E. coli BTH101 (cya mutant); beta-galactosidase assay in Miller units; cultures grown overnight at 26°C, subcultured in LB, 37°C for 30 min
[1] = target: T25 fusion to the N terminus of WcaJ (K. pneumoniae (strain KPPR1S))
[2] = target: T25 fusion to the N terminus of Wzb (K. pneumoniae (strain KPPR1S))
[3] = target: T25 fusion to the N terminus of Wzc (K. pneumoniae (strain KPPR1S))
[4] = target: leucine zipper (zip) domain, positive control of the bacterial two-hybrid system
[5] = target: leucine zipper (zip) domain, positive control of the bacterial two-hybrid system; remark: listed apart in the source

RmpD-T18 (natural protein)
beta-galactosidase activity relative to the zip-zip controls (% of the zip-zip controls) [1]: < 10 | beta-galactosidase activity relative to the zip-zip controls (% of the zip-zip controls) [2]: < 10 | beta-galactosidase activity [3]: 2150 Miller units

leucine zipper (zip) domain, positive control of the bacterial two-hybrid system (domain or fragment)
beta-galactosidase activity [4]: 1530 Miller units | beta-galactosidase activity [5]: 1740 Miller units
